# “And” between values parts separate entries of the source, which are not always exact repeats. Identical values can stand only once. “Also recorded” adds a separate entry of the source.
# How the values were obtained:
# [1] = target: MMP14 (Homo sapiens, UniProt P50281); test: Cleavage by recombinant MMP14 in vitro (HPLC traces, mass spectrometry); format: biochemical; details: over 18 h
# [2] = Top 3 Taxol Compounds (20uM) PC3 Vs LNCaP (x2) Vs PNT2 Cell-based assay
# Procedure: Table printed on a drawing sheet, Fig. 9 (Cont.)
# Title: Top 3 Taxol Compounds (20uM) PC3 Vs LNCaP (x2) Vs PNT2 Cell-based assay
# Footnotes: [diagonal hatching] Tumour (51-100%) / Non-Tumour (0-15%) / [horizontal hatching] Tumour & Non-Tumour (26-50%) / [cross hatching] Tumour (0-25%) / Non-Tumour (51-100%)
# First reader's note: Continuation of Fig. 9; cell shading (hatching) classifies the values by the legend, and all compounds were tested at 20uM in cell culture.
# [3] = In vivo murine pharmacokinetic study monitoring paclitaxel release in tumour, tissues and plasma
# Description: The early peak drug concentrations associated with paclitaxel dosing are removed by administration of prodrug. A 10-fold increase in tumour concentration of paclitaxel is observed following administration as ICT3205.
# FIG. 21 provides a table highlighting in greater detail the disparity of distribution between normal tissues and tumour tissues for paclitaxel alone, parent ICT3205 and paclitaxel release from the prodrug.
# [4] = test system: prostate tumour-associated MT-MMPs; test: Incubation in tissue culture media containing prostate tumour cells; format: cell-based; details: incubation at 20 um in tissue culture media with cells; compared to other agents tested
# [5] = test system: PC3 xenografts; test: Anti-tumour efficacy study in PC3 xenografts; format: in vivo, mouse; details: PC3-bearing mice; single dose; ICT3205 20 mg/kg, paclitaxel 7 mg/kg (molar equivalent)
# [6] = Metabolism in LNCaP prostate cancer cell line; format: in vitro ADME
# [7] = ALL Taxol Compounds (10uM) PC3 Vs Liver Vs HT1080 Metabolism
# Procedure: Table printed on a drawing sheet, Fig. 8 (Cont.)
# Title: ALL Taxol Compounds (10uM) PC3 Vs Liver Vs HT1080 Metabolism
# (§1) Footnotes: [diagonal hatching] Tumour (51-100%) / Liver (0-15%) / [horizontal hatching] Tumour & Liver (26-50%) / [cross hatching] Tumour (0-25%) / Liver (51-100%)
# First reader's note: Continuation of Fig. 8; the title prints 10uM while the head row prints 10mM, and cell hatching marks the classes given in the legend.
# [8] = target: MMP 15 (Homo sapiens, UniProt P51511); test: Cleavage by recombinant MMP15 in vitro (HPLC traces); format: biochemical; details: over 18 h
# [9] = ALL Taxol Compounds (1uM) PC3 Vs Liver Vs HT1080 Metabolism
# Procedure: Table printed on a drawing sheet, Fig. 7 (Cont.)
# Title: ALL Taxol Compounds (1uM) PC3 Vs Liver Vs HT1080 Metabolism
# as §1
# First reader's note: Continuation of Fig. 7; cell hatching classifies the values per the legend, and the title states 1uM while the head row states 1mM.
# [10] = PK study (PC3) ICT3205 - 15mg/kg (5mg/kg taxol) IP Almost undetectable concentrations of ICT3205 in tumour
# Procedure: Table printed on a drawing sheet, Fig. 21
# Title: PK study (PC3) ICT3205 - 15mg/kg (5mg/kg taxol) IP Almost undetectable concentrations of ICT3205 in tumour
# Footnotes: Tumour AUC ↑ x10-fold Tumour Cmax ↑ x10-fold } For ACTIVE Taxol / ALSO Tissue AUC ↓ Tissue Cmax ↓ x10-fold } For ACTIVE Taxol
# The patent's description of the figure: FIG. 21 provides a table highlighting in greater detail the disparity of distribution between normal tissues and tumour tissues for paclitaxel alone, parent ICT3205 and paclitaxel release from the prodrug.
# First reader's note: The ratio cells span the three analyte rows of each tissue and are repeated in each row; the first PC3 row is printed as 'ICT2305' (boxed) and has its own empty Cmax Ratio cell.
# [11] = Incubation with PC3 tumour homogenate (tumour activation); format: in vitro ADME
# Description: A paclitaxel (Taxol) standard is shown in the top trace,
# (§2) The relative importance of individual amino acids within the MT-MMP peptide recognition sequence has been investigated following extensive ex vivo metabolic studies. These studies employed tissue homogenates to assess activation of prodrug conjugates in tumour (PC-3) tissues and stability in normal tissues (liver kidney lung).
# [12] = ALL Taxol Compounds (1uM) (ALL Tissue Metabolism)
# Procedure: Table printed on a drawing sheet, Fig. 11
# Title: ALL Taxol Compounds (1uM) (ALL Tissue Metabolism)
# Footnotes: Tumour (51-100%) / Liver (0-15%) / Tumour & Liver (26-50%) / Tumour (0-25%) / Liver (51-100%)
# First reader's note: Cell hatching codes the classes given in the legend; all compounds tested at 1uM in tissue homogenates.
# [13] = Incubation with normal tissue homogenates (normal tissue stability); format: in vitro ADME
# Procedure: Parent molecules are incubated with tissue homogenate and half lives calculated Green indicates acceptable whereas red is unacceptable.
# as §2
# [14] = Systemic toxicity by mouse body weight; format: in vivo; details: mice
# Chain of MMP 15 (P51511 132-669): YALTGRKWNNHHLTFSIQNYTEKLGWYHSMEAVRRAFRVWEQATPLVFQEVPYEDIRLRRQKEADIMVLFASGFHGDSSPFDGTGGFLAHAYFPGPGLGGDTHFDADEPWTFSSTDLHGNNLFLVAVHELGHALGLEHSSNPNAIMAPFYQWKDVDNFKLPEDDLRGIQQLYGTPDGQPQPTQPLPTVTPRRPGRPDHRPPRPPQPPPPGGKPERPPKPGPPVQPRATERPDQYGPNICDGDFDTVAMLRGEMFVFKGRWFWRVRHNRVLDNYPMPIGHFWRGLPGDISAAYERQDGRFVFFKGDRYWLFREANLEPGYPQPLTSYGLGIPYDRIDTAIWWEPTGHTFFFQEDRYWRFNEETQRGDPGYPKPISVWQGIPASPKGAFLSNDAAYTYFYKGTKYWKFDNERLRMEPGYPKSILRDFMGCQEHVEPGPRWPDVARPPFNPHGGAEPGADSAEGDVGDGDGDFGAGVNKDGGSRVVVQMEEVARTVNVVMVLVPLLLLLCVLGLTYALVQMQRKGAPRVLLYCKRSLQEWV
compound,measurement,setting,value
CC(=O)O[C@H]1C(=O)[C@@]2(C)C([C@H](OC(=O)c3ccccc3)[C@]3(O)C[C@H](OC(=O)[C@H](OC(=O)OCc4ccc(NC(=O)[C@H](CC(C)C)NC(=O)[C@H](Cc5ccc(O)cc5)NC(=O)[C@H](CCc5ccccc5)NC(=O)CNC(=O)[C@H](CCCNC(N)=O)NC(=O)[C@H](CO)NC(=O)[C@H](CCCNC(=N)N)NC(=O)CCNC(=S)Nc5ccc6c(c5)C(=O)OC65c6ccc(O)cc6Oc6cc(O)ccc65)cc4)[C@@H](NC(=O)c4ccccc4)c4ccccc4)C(C)=C1C3(C)C)[C@]1(OC(C)=O)CO[C@@H]1C[C@@H]2O (some centres unmarked) [ICT3205],cleavage by recombinant MMP14,[1],cleavage
same,Cell Culture Metabolism (20uM) | LNCaP (2) Taxol Release (% gain),[2],81 % gain
same,Cell Culture Metabolism (20uM) | LNCaP Stability (% loss),[2],100 % loss
same,Cell Culture Metabolism (20uM) | LNCaP Taxol Release (% gain),[2],73 % gain
same,Cell Culture Metabolism (20uM) | PC3 Stability (% loss),[2],84 % loss
same,Cell Culture Metabolism (20uM) | PC3 Taxol Release (% gain),[2],49 % gain
same,Cell Culture Metabolism (20uM) | PNT2 Stability (% loss),[2],21 % loss
same,Cell Culture Metabolism (20uM) | PNT2 Taxol Release (% gain),[2],12 % gain
same,levels of paclitaxel released from ICT3205 in heart,[3]; heart,< 0.5 µM
same,"AUC ratio of paclitaxel released from ICT3205 compared to paclitaxel administered alone, normal tissues","[3]; normal tissues, AUC in uM.h, ICT3205 20 mg/kg vs paclitaxel 7 mg/kg",0.05-0.99
same,"Cmax ratio of paclitaxel released from ICT3205 vs paclitaxel alone, other tissues","[3]; other tissues, ICT3205 20 mg/kg vs paclitaxel 7 mg/kg",0.02-0.19
same,levels of paclitaxel released from ICT3205 in plasma,[3]; plasma,below detectable levels
same,"AUC ratio of paclitaxel released from ICT3205 compared to paclitaxel administered alone, tumour","[3]; tumour, AUC in uM.h, ICT3205 20 mg/kg vs paclitaxel 7 mg/kg",16.2
same,"Cmax ratio of paclitaxel released from ICT3205 vs paclitaxel alone, tumour","[3]; tumour, ICT3205 20 mg/kg vs paclitaxel 7 mg/kg",9.77
same,increase in tumour concentration of paclitaxel following administration as ICT3205,"[3]; tumour, versus equimolar paclitaxel alone",10 fold
same,cleavage by prostate tumour-associated MT-MMPs and release of paclitaxel,[4],superior cleavage
same,anti-tumour effect (growth delay),[5],highly significant growth delay; also recorded: superior anti-tumour effects
same,metabolism of conjugate in LNCaP,[6],metabolised equally quickly
same,Tissue Homogenate Metabolism (10 µM) | HT1080 Stability (% loss),[7],48 % loss
same,Tissue Homogenate Metabolism (10 µM) | HT1080 Taxol Release (% gain),[7],55 % gain
same,Tissue Homogenate Metabolism (10 µM) | Liver Stability (% loss),[7],12 % loss
same,Tissue Homogenate Metabolism (10 µM) | Liver Taxol Release (% gain),[7],21 % gain
same,Tissue Homogenate Metabolism (10 µM) | PC3 Stability (% loss),[7],54 % loss
same,Tissue Homogenate Metabolism (10 µM) | PC3 Taxol Release (% gain),[7],60 % gain
same,cleavage by recombinant MMP 15,[8],cleavage
same,Tissue Homogenate Metabolism (1 µM) | HT1080 Stability (% loss),[9],60 % loss
same,Tissue Homogenate Metabolism (1 µM) | HT1080 Taxol Release (% gain),[9],58 % gain
same,Tissue Homogenate Metabolism (1 µM) | Liver Stability (% loss),[9],12 % loss
same,Tissue Homogenate Metabolism (1 µM) | Liver Taxol Release (% gain),[9],19 % gain
same,Tissue Homogenate Metabolism (1 µM) | PC3 Stability (% loss),[9],77 % loss
same,Tissue Homogenate Metabolism (1 µM) | PC3 Taxol Release (% gain),[9],85 % gain
same,Tmax,[10],4 h and 2 h
same,"metabolism (disappearance, activation) of conjugate in PC3",[11]; PC3 prostate cancer cell line homogenate,disappearance; also recorded: metabolised equally quickly; also recorded: metabolised rapidly
same,paclitaxel release in PC3 tumour,[11]; PC3 tumour homogenate,differential release of free paclitaxel; also recorded: appearance of paclitaxel
same,Tissue Homogenate Metabolism (1uM) | Kidney Stability (% loss),[12],4 % loss
same,Tissue Homogenate Metabolism (1uM) | Kidney Taxol Release (% gain),[12],4 % gain
same,Tissue Homogenate Metabolism (1uM) | Lung Stability (% loss),[12],19 % loss
same,Tissue Homogenate Metabolism (1uM) | Lung Taxol Release (% gain),[12],12 % gain
same,stability in kidney and liver homogenates,"[13]; kidney and liver, over other molecules",marked increased stability
same,appearance of paclitaxel in liver homogenate,[13]; liver homogenate,not in the liver
same,conjugate stability in liver homogenate,[13]; liver homogenate,relative stability
same,stability in normal tissue homogenates,"[13]; liver, kidney, lung",stable; also recorded: long in vitro ‘half-life’ and stability
same,toxicity and adverse systemic effects as indicated by mouse body weight,[14],no toxicity and no adverse systemic effects
"CC(=O)O[C@H]1C(=O)[C@@]2(C)[C@H]([C@H](OC(=O)c3ccccc3)[C@]3(O)C[C@H](OC(=O)[C@H](O)[C@@H](NC(=O)c4ccccc4)c4ccccc4)C(C)=C1C3(C)C)[C@]1(OC(C)=O)CO[C@@H]1C[C@@H]2O [paclitaxel, Paclitaxel, reference compound]",anti-tumour effect (growth delay),[5],no significant anti-tumour effect; also recorded: no efficacy
MeO (PEG) [ICT3200],Cell Culture Metabolism (20uM) | LNCaP (2) Stability (% loss),[2],62 % loss
same,Cell Culture Metabolism (20uM) | LNCaP (2) Taxol Release (% gain),[2],51 % gain
same,Cell Culture Metabolism (20uM) | LNCaP Stability (% loss),[2],61 % loss
same,Cell Culture Metabolism (20uM) | LNCaP Taxol Release (% gain),[2],62 % gain
same,Cell Culture Metabolism (20uM) | PC3 Stability (% loss),[2],89 % loss
same,Cell Culture Metabolism (20uM) | PC3 Taxol Release (% gain),[2],49 % gain
same,Cell Culture Metabolism (20uM) | PNT2 Stability (% loss),[2],60 % loss
same,Cell Culture Metabolism (20uM) | PNT2 Taxol Release (% gain),[2],22 % gain
same,Tissue Homogenate Metabolism (10 µM) | HT1080 Stability (% loss),[7],61 % loss
same,Tissue Homogenate Metabolism (10 µM) | HT1080 Taxol Release (% gain),[7],30 % gain
same,Tissue Homogenate Metabolism (10 µM) | Liver Stability (% loss),[7],0 % loss
same,Tissue Homogenate Metabolism (10 µM) | Liver Taxol Release (% gain),[7],8 % gain
same,Tissue Homogenate Metabolism (10 µM) | PC3 Stability (% loss),[7],80 % loss
same,Tissue Homogenate Metabolism (10 µM) | PC3 Taxol Release (% gain),[7],36 % gain
same,Tissue Homogenate Metabolism (1 µM) | HT1080 Stability (% loss),[9],72 % loss
same,Tissue Homogenate Metabolism (1 µM) | HT1080 Taxol Release (% gain),[9],29 % gain
same,Tissue Homogenate Metabolism (1 µM) | Liver Stability (% loss),[9],5 % loss
same,Tissue Homogenate Metabolism (1 µM) | Liver Taxol Release (% gain),[9],5 % gain
same,Tissue Homogenate Metabolism (1 µM) | PC3 Stability (% loss),[9],82 % loss
same,Tissue Homogenate Metabolism (1 µM) | PC3 Taxol Release (% gain),[9],36 % gain
same,Tissue Homogenate Metabolism (1uM) | Kidney Stability (% loss),[12],32 % loss
same,Tissue Homogenate Metabolism (1uM) | Kidney Taxol Release (% gain),[12],25 % gain
same,Tissue Homogenate Metabolism (1uM) | Lung Stability (% loss),[12],64 % loss
same,Tissue Homogenate Metabolism (1uM) | Lung Taxol Release (% gain),[12],31 % gain
